# Results taken from US20230285583A1, “LIQUID FORMULATION OF LONG-ACTING CONJUGATE OF GLUCAGON, GLP-1, AND GIP TRIGONAL AGONIST” (HANMI PHARM, CO., LTD., priority 2020, published 2023).
# Bridge positions count the residues as written; N and C are the ends. Square brackets hold non-standard residues; d marks the D form. Ends that are not written are not given here. Aib = CC(C)(N)C(=O)O
# T1: human GIP receptor (human, UniProt P48546 22-466)
# T1 sequence (looked up): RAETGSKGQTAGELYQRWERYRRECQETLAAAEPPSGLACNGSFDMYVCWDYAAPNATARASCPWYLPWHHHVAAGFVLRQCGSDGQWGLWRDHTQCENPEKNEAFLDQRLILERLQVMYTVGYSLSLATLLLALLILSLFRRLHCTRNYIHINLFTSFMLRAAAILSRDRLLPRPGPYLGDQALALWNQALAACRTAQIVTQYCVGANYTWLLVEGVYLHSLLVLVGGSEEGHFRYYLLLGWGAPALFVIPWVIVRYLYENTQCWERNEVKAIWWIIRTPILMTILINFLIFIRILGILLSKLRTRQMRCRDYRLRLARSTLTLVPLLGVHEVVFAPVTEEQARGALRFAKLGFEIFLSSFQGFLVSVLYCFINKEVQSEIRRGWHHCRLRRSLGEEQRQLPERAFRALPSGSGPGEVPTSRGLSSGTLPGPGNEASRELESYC
# B1: trigonal agonist of SEQ ID NO: 3 (peptide)
# peptide: H[Aib]QGTFTSDYSKYLDEKAQKEFVQWLLDTC
# modifications: bridge 16-20; not fully specified (bridges)
# B2: trigonal agonist of SEQ ID NO: 25 (peptide)
# peptide: Y[Aib]QGTFTSDYSKCLDEKRAKDFVQWLLDHHPSSGQPPPS
# modifications: bridge 16-20; not fully specified (bridges); ends not checked
# B3: trigonal agonist of SEQ ID NO: 12 (peptide)
# peptide: H[Aib]QGTFTSDYSKYLDEKRQKEFVQWLLNTC
# modifications: bridge 16-20; not fully specified (bridges)
# B4: trigonal agonist of SEQ ID NO: 20 (peptide)
# peptide: H[Aib]QGTFTSDYSKCLDEKRAKEFVQWLLDHHPSSGQPPPS
# modifications: bridge 16-20; not fully specified (bridges)
# B5: trigonal agonist of SEQ ID NO: 23 (peptide)
# peptide: Y[Aib]QGTFTSDYSKCLDEKAAKEFVQWLLDHHPSSGQPPPS
# modifications: bridge 16-20; not fully specified (bridges)
# B6: trigonal agonist of SEQ ID NO: 21 (peptide)
# peptide: Y[Aib]QGTFTSDYSKYLDECRAKDFVQWLLDHHPSSGQPPPS
# modifications: bridge 16-20; not fully specified (bridges)
# B7: trigonal agonist of SEQ ID NO: 14 (peptide)
# peptide: H[Aib]EGTFTSDYSIAMDEIHQKDFVNWLLAQC
# modifications: lactam 16-20
# B8: trigonal agonist of SEQ ID NO: 13 (peptide)
# peptide: H[Aib]QGTFTSDYSKYLDEKRQKEFVQWLLDTC
# modifications: bridge 16-20; not fully specified (bridges)
# B9: trigonal agonist of SEQ ID NO: 22 (peptide)
# peptide: Y[Aib]QGTFTSDYSKYLDECAAKDFVQWLLDHHPSSGQPPPS
# modifications: bridge 16-20; not fully specified (bridges)
# B10: trigonal agonist of SEQ ID NO: 19 (peptide)
# peptide: Y[Aib]QGTFTSDYSKYLDECAAKEFVQWLLDHHPSSGQPPPS
# modifications: bridge 16-20; not fully specified (bridges)
# B11: trigonal agonist of SEQ ID NO: 16 (peptide)
# peptide: H[Aib]QGTFTSDYSIAMDEIHQKDFVNWLLAQC
# modifications: lactam 16-20
# B12: trigonal agonist of SEQ ID NO: 15 (peptide)
# peptide: H[Aib]EGTFTSDYSIAMDEIHQKDFVDWLLAEC
# modifications: bridge 16-20; not fully specified (bridges)
# B13: trigonal agonist of SEQ ID NO: 11 (peptide)
# peptide: H[Aib]QGTFTSDYSKYLDEKRAKEFVQWLLDHHPSSGQPPPSC
# modifications: bridge 16-20; not fully specified (bridges)
# B14: trigonal agonist of SEQ ID NO: 17 (peptide)
# peptide: H[Aib]QGTFTSDYSKYLDEKRQKEFVNWLLAQC
# modifications: bridge 16-20; not fully specified (bridges)
# B15: trigonal agonist of SEQ ID NO: 2 (peptide)
# peptide: Y[Aib]QGTFTSDYSKCLDEKRAKEFVQWLLDHHPSSGQPPPS
# modifications: bridge 16-20; not fully specified (bridges)
# B16: trigonal agonist of SEQ ID NO: 24 (peptide)
# peptide: Y[Aib]QGTFTSDYSKCLDERAAKEFVQWLLDHHPSSGQPPPS
# modifications: bridge 16-20; not fully specified (bridges)
# B17: trigonal agonist of SEQ ID NO: 18 (peptide)
# peptide: H[Aib]QGTFTSDYSKYLDEKRQKEFVQWLLNTKC
# modifications: bridge 16-20; not fully specified (bridges)
# Molecular target: human GLP-1 receptor (human, UniProt P43220 24-463)
# Assay: cell-based or functional assay
row,Binder,In Vitro Activity Compared to Native Peptide (%) vs. GLP-1 (relative titer from cAMP EC50)
1,B1,142%
2,B2,15.1%
3,B3,14.4%
4,B4,95.4%
5,B5,27.9%
6,B6,15.8%
7,B7,161%
8,B8,44.1%
9,B9,28.5%
10,B10,64.6%
11,B11,27.1%
12,B12,30.6%
13,B13,67.4%
14,B14,57.9%
15,B15,20.1%
16,B16,24.3%
17,B17,39.1%

# Molecular target: T1, human GIP receptor
# Assay: cell-based or functional assay
row,Binder,In Vitro Activity Compared to Native Peptide (%) vs. GIP (relative titer from cAMP EC50)
1,B1,0.8%
2,B2,64.4%
3,B3,0.1%
4,B4,11.6%
5,B5,107%
6,B6,17.2%
7,B7,1.3%
8,B8,0.3%
9,B9,39.8%
10,B10,92.9%
11,B11,2.4%
12,B12,0.1%
13,B13,2.7%
14,B14,0.8%
15,B15,59.7%
16,B16,62.8%
17,B17,0.2%

# Molecular target: human GCG receptor (human, UniProt P47871 26-477)
# Sequence (P47871 26-477): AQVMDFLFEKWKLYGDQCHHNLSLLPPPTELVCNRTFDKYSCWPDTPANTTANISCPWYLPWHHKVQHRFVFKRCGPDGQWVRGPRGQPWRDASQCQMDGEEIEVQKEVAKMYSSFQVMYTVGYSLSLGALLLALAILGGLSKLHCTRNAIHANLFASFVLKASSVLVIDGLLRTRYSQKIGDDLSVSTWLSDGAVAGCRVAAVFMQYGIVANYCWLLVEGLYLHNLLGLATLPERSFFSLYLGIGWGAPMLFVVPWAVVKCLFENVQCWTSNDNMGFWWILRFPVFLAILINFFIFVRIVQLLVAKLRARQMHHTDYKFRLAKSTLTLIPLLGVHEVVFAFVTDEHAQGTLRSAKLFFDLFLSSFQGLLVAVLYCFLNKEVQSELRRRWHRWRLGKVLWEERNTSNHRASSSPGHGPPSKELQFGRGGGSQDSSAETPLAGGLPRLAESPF
# Assay: cell-based or functional assay
row,Binder,In Vitro Activity Compared to Native Peptide (%) vs. Glucagon (relative titer from cAMP EC50)
1,B1,0.7%
2,B2,71.3%
3,B3,2%
4,B4,25.2%
5,B5,8.8%
6,B6,172%
7,B7,8.4%
8,B8,7.5%
9,B9,46.2%
10,B10,60.1%
11,B11,0.7%
12,B12,1.4%
13,B13,50.5%
14,B14,4.9%
15,B15,140%
16,B16,9.6%
17,B17,2.6%
